Reference: publication PMC8784342, “Investigation of sugar binding kinetics of the E. coli sugar/H^+ symporter XylE using solid-supported membrane-based electrophysiology” (The Journal of Biological Chemistry, 2021)
Several values for one entry are separate records, joined by “and”; a condition that tells them apart may be missing. Identical values can stand only once.

What was measured:
Assay type in all cases: biochemical, Escherichia coli
[1] = substrate: OC1OC[C@@H](O)[C@@H](O)[C@@H]1O; test: SSM-based electrophysiology, proteoliposomes with wt FucP
Method: (§1) Reconstitution of purified proteins (2–20 mg/ml) was carried out with E. coli phospholipids (Avanti Polar Lipids, E. coli polar lipid extract). Preformed liposomes (0.2–2 ml, 10 mg/ml) were dissolved in 1% (w/v) n-octyl-β-D-glucoside, and the protein suspension was mixed on ice to a concentration of 0.2 mg protein/mg lipid (LPR 5).
(§2) Wt XylE, wt FucP, and the mutant proteins were reconstituted using overnight incubation in 400 mg/ml BioBeads (SM-2 Adsorbent Media, Bio-Rad) at 4 °C. After reconstitution, the samples were diluted to 2.5 mg/ml lipid concentration, frozen in liquid nitrogen, and stored at −80 °C. For wt LacY and mutant proteins, this procedure was not successful. We, therefore, applied the previously established n-octyl-β-D-glucoside dilution method (1:100) ([69]).
(§3) SSM measurements were performed as described ([20], [23]). After thawing the sample and sonication in a water bath, 30 μl of proteoliposomes (2.5 mg/ml lipid at LPR 5) was allowed to adsorb for 1 to 2 h to an octadecanethiol/phosphatidylcholine hybrid bilayer on a gold surface (the sensor).
(§4) For measurements, a single solution exchange configuration ([23]) was employed that consisted in three phases of 0.5 s duration each: Flow of nonactivating solution (NA), activating solution (A), and nonactivating solution (NA). Only the activating solution contained the sugar. When pH dependence is determined, pH of NA and A solutions during one experiment are kept constant. Between experiments using different pH values, the sensor was incubated at the new pH for 3 min to equilibrate the intraliposomal pH.
(§5) Instruments with different time resolution were used as required. […] Currents were recorded throughout the entire time and amplified with a current amplifier set to a gain of […] and a rise time of 10 ms (low time-resolution set up) or 3 ms (high time-resolution set up).
(§6) All NA solutions were buffered in 100 mM KPi at a given pH value. […] Sugar concentration jumps initiated sugar-proton symport, and charge transfer was measured by capacitive coupling. Therefore, only transient currents were recorded. […]

[2] = substrate: OC[C@@H]1OC(O)[C@@H](O)[C@H](O)[C@@H]1O; test: as above; details: other: pH 7.6, minor substrate, peak currents, low time-resolution set up
Method: as §1, §2, §3, §4, §5, §6

[3] = substrate: OC[C@H]1O[C@@H](O[C@@H]2[C@@H](CO)O[C@](O)(CO)[C@H]2O)[C@H](O)[C@@H](O)[C@H]1O; test: SSM-based electrophysiology, proteoliposomes with wt LacY
Method: as §1
as §2, with “We, therefore, applied the previously established n-octyl-β-D-glucoside dilution method (1:100) ([69]).” left out
For measurements, a single solution exchange configuration ([23]) was employed that consisted in three phases of 0.5 s duration each: Flow of nonactivating solution (NA), activating solution (A), and nonactivating solution (NA). […] When pH dependence is determined, pH of NA and A solutions during one experiment are kept constant. […]
as §5
All NA solutions were buffered in 100 mM KPi at a given pH value. […] Therefore, only transient currents were recorded. […]

[4] = other: pH 7.6, minor substrate, peak currents, low time-resolution set up
[5] = other: pH 7.6, peak currents, Hill equation

B1: wt FucP (Escherichia coli K-12) (protein)
chain: MGNTSIQTQSYRAVDKDAGQSRSYIIPFALLCSLFFLWAVANNLNDILLPQFQQAFTLTNFQAGLIQSAFYFGYFIIPIPAGILMKKLSYKAGIITGLFLYALGAALFWPAAEIMNYTLFLVGLFIIAAGLGCLETAANPFVTVLGPESSGHFRLNLAQTFNSFGAIIAVVFGQSLILSNVPHQSQDVLDKMSPEQLSAYKHSLVLSVQTPYMIIVAIVLLVALLIMLTKFPALQSDNHSDAKQGSFSASLSRLARIRHWRWAVLAQFCYVGAQTACWSYLIRYAVEEIPGMTAGFAANYLTGTMVCFFIGRFTGTWLISRFAPHKVLAAYALIAMALCLISAFAGGHVGLIALTLCSAFMSIQYPTIFSLGIKNLGQDTKYGSSFIVMTIIGGGIVTPVMGFVSDAAGNIPTAELIPALCFAVIFIFARFRSQTATN
notes: made in house; host or cells: E. coli BL21 DE3
[1]; [4]
  Km: 12.2 ± 2.8 mM
[1]; [5]
  K0.5: 80 ± 40 mM
[2]
  Km: 7.4 ± 1.3 mM

B2: wt LacY (Escherichia coli K-12) (protein)
chain: MYYLKNTNFWMFGLFFFFYFFIMGAYFPFFPIWLHDINHISKSDTGIIFAAISLFSLLFQPLFGLLSDKLGLRKYLLWIITGMLVMFAPFFIFIFGPLLQYNILVGSIVGGIYLGFCFNAGAPAVEAFIEKVSRRSNFEFGRARMFGCVGWALCASIVGIMFTINNQFVFWLGSGCALILAVLLFFAKTDAPSSATVANAVGANHSAFSLKLALELFRQPKLWFLSLYVIGVSCTYDVFDQQFANFFTSFFATGEQGTRVFGYVTTMGELLNASIMFFAPLIINRIGGKNALLLAGTIMSVRIIGSSFATSALEVVILKTLHMFEVPFLLVGCFKYITSQFEVRFSATIYLVCFCFFKQLAMIFMSVLAGNMYESIGFQGAYLVLGLVALGFTLISVFTLSGPGPLSLLRRQVNEVA
notes: made in house; host or cells: E. coli XL1-Blue
[3]; [4]
  Km: 2.27 ± 0.54 mM and 2.3 ± 0.6 mM
[3]; [5]
  K0.5: 6.94 ± 3.58 mM
